Source: publication PMC8373075 (Nucleic Acids Research, 2021)

Target: T1, FLAG-CTIF-F460A (human, UniProt O43310 1-598, F460A)
T1 sequence (looked up): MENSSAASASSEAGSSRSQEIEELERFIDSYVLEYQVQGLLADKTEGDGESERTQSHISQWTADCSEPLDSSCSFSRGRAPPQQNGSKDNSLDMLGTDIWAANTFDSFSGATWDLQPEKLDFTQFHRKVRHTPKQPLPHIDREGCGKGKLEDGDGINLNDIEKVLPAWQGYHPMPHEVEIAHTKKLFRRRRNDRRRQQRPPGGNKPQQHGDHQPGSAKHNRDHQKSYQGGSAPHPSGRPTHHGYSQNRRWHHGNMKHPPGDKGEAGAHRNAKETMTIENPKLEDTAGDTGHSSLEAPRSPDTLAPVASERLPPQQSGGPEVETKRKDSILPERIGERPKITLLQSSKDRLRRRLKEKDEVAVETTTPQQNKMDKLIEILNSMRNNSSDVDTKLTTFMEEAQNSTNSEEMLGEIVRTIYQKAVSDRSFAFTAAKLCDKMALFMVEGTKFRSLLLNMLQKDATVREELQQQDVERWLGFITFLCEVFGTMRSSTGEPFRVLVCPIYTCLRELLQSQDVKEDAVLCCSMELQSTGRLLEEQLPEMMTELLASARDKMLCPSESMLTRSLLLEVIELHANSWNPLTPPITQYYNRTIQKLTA
Assay: co-IP

fold change of the co-immunoprecipitated amount against the IP of CTIF-WT: ~2.8 fold
B1: endogenous CBP80 (natural protein, human (endogenous in HEK293T), UniProt Q09161 1-790, looked up)
chain: MSRRRHSDENDGGQPHKRRKTSDANETEDHLESLICKVGEKSACSLESNLEGLAGVLEADLPNYKSKILRLLCTVARLLPEKLTIYTTLVGLLNARNYNFGGEFVEAMIRQLKESLKANNYNEAVYLVRFLSDLVNCHVIAAPSMVAMFENFVSVTQEEDVPQVRRDWYVYAFLSSLPWVGKELYEKKDAEMDRIFANTESYLKRRQKTHVPMLQVWTADKPHPQEEYLDCLWAQIQKLKKDRWQERHILRPYLAFDSILCEALQHNLPPFTPPPHTEDSVYPMPRVIFRMFDYTDDPEGPVMPGSHSVERFVIEENLHCIIKSHWKERKTCAAQLVSYPGKNKIPLNYHIVEVIFAELFQLPAPPHIDVMYTTLLIELCKLQPGSLPQVLAQATEMLYMRLDTMNTTCVDRFINWFSHHLSNFQFRWSWEDWSDCLSQDPESPKPKFVREVLEKCMRLSYHQRILDIVPPTFSALCPANPTCIYKYGDESSNSLPGHSVALCLAVAFKSKATNDEIFSILKDVPNPNQDDDDDEGFSFNPLKIEVFVQTLLHLAAKSFSHSFSALAKFHEVFKTLAESDEGKLHVLRVMFEVWRNHPQMIAVLVDKMIRTQIVDCAAVANWIFSSELSRDFTRLFVWEILHSTIRKMNKHVLKIQKELEEAKEKLARQHKRRSDDDDRSSDRKDGVLEEQIERLQEKVESAQSEQKNLFLVIFQRFIMILTEHLVRCETDGTSVLTPWYKNCIERLQQIFLQHHQIIQQYMVTLENLLFTAELDPHILAVFQQFCALQA
